Assay: yeast display, Sf9 membrane polyspecificity reagent, FACS + sequencing; frameworks hold sequencing errors
In short: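 Galactose induction of a Saccharomyces cerevisiae BJ5465 synthetic nanobody display library ran 36–48 hours. The cells were then stained for 1 hour at 4 °C with 10% biotinylated, detergent-solubilized Sf9 membrane reagent, pulled down on streptavidin microbeads and FACS-sorted into low and high (top ~1%) gates on expression and reagent-binding fluorescence. Labels for polyreactivity follow the gate of origin.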
For “QVQLVESGGGLVQAGGSLRLSCAASGGIFDRYAMGWYRQAPGKERELVAAITSGGSTNYADSVKGRFTISRDNAKNTVYLQMNSLKPEDTAVYYCNADLGILSGVAEGPTFREYDYWGQGTQVTVSS”, the “polyreactivity (PSR sort gate)” value was “low polyreactivity”.
In the case of “QVQLVESGGGLVQAGGSLRLSCAASGGIFDSYAMGWYRQAPGKERELVADITWSGGSTYYADSVKGSFTISRDNAKNTVYLQMNSLKPEDTAVYLCAAVWNSPYDYWGQGTLVTVSS”, the “polyreactivity (PSR sort gate)” value is reported as “low polyreactivity”.
With “QVQLVESGGGLVQAGGSLRLSCAASGGIFDTNAMGWSRQAPGKERELVAAIRGSGGTYYADSVKGRFTISRDNAKNTVYLQMNSLKPEDTAVYYCATRTYRVLAGSAWYHYNYWGQGTQVTVSS” the “polyreactivity (PSR sort gate)” value was “high polyreactivity”.
With “QVQLVESGGGLVQAGGSLRLSCAASGGIFDTYAMGWYRQEPGKERELVAAISRRGGNTYYADSVKGRFTISRDNAKNTVYLQMNSLKPEDTAVYYCAAYYHGRMDYWGQGTQVTVSS” the “polyreactivity (PSR sort gate)” value was “high polyreactivity”.
For “QVQLVESGGGLVQAGGSLRLSCAASGGIFEAYVMGWYRHAPGKERELVAAISFRGGSTYYADSVKGRFTISRDNAKNTVYLQMNSLKPEDTAVYYCAADYRHQGYDYWGQGTQVTVSS”, the “polyreactivity (PSR sort gate)” value was “low polyreactivity”.
For “QVQLVESGGGLVQAGGSLRLSCAASGGIFFLYAMGWYRQAPGKETELVAAIRQDGGSTYYADSVKGRFTISRDNAKNTVYLQMNSLKPEDTAVYYCNAGYVKTGLEYYYWGQGPQVTVSS”, the “polyreactivity (PSR sort gate)” value was “low polyreactivity”.
For “QVQLVESGGGLVQAGGSLRLSCAASGGIFFSYAMGWYRQAPGKERELVAAIRTNGGTTYYADSVKGRFTISRDNAKNTVYLQMNSLKPEDTAVYYCAALPGGYYDRGEYDYWGQGTQVTVSS”, the “polyreactivity (PSR sort gate)” value was “low polyreactivity”.
In the case of “QVQLVESGGGLVQAGGSLRLSCAASGGIFGINAMGWYRQAPGKEREFVAAITASGGTTYYADSVKGRFTISRDNAKNTVYLQMNSLKPEDTAVYYCAKRYRSYDYVWYEYWGQGTQVTVSS”, the “polyreactivity (PSR sort gate)” value is reported as “high polyreactivity”.
For “QVQLVESGGGLVQAGGSLRLSCAASGGIFGRNAMGWYRQAPGKERELVASISKSGGSTYYADSVKGRFTISRDNAKNTVYLQMKSLKPEDSAVYYCAARYSYFNWDNYYWGQGTLVTVSS”, the “polyreactivity (PSR sort gate)” value was “high polyreactivity”.
In the case of “QVQLVESGGGLVQAGGSLRLSCAASGGIFGRYAMGWYRQAPGKERELVAGISYSGGSTYYADSVKGRFTISRDNAKNSVYLQMNSLKPEDTAVYYCATGGYVWYRSVNVWTRMDYWGQGTQVTVSS”, the “polyreactivity (PSR sort gate)” value is reported as “high polyreactivity”.
For “QVQLVESGGGLVQAGGSLRLSCAASGGIFGRYAMGWYRQAPGKERELVAGLSYSGGSTYYADSVKGRFTISRDNEKNTVYLQMTSLKAEDTAVYYCAADTRRTYENYYWGQGTQVTVSS”, the “polyreactivity (PSR sort gate)” value was “high polyreactivity”.
For “QVQLVESGGGLVQAGGSLRLSCAASGGIFGTYTMGWYRQAPGKERELVAAIRSSSGRTYYADSVKGRFTISRDTAKNTVYLQMNSLKPEDTAVYYCNRAYTIQDDYWGQGTQVTVSS”, the “polyreactivity (PSR sort gate)” value was “high polyreactivity”.
For “QVQLVESGGGLVQAGGSLRLSCAASGGIFGVYAMGWYRQAPGKERELVAAISQSDTSTYYADSVKGRFTISRDNAKNTVYLQMNSLKPEDTAVYYCAAEYYLDYYTWFDYWGQGTQVTVSS”, the “polyreactivity (PSR sort gate)” value was “high polyreactivity”.
With “QVQLVESGGGLVQAGGSLRLSCAASGGIFGWYAMGWYRQAPGKERELVAAITGGGSTYYADSVKGRFTISRDNAKNTVYLQMNSLKPEDTAVYYCNADYHTEEDYWGHGTQVTVSS” the “polyreactivity (PSR sort gate)” value was “low polyreactivity”.
In the case of “QVQLVESGGGLVQAGGSLRLSCAASGGIFGYYAMAWYRQAPGKEREFVAAITLSGGRSYYADSVKGRFTISRDNAKNTVYLQMNSLKPEDTAVYYCNAYPYYLVRNMDSWGQGTQVTVTS”, the “polyreactivity (PSR sort gate)” value is reported as “high polyreactivity”.
In the case of “QVQLVESGGGLVQAGGSLRLSCAASGGIFGYYAMGWYRQAPGKEREFVAAITARGGRTYYADSVKGRFTISRDNAKNTVYLQMNSLKPEDTAVYYCAAYSPVWGRYYHRVERDYWGQGTQVTVSS”, the “polyreactivity (PSR sort gate)” value is reported as “high polyreactivity”.
With “QVQLVESGGGLVQAGGSLRLSCAASGGIFIANAMGWYRQAPGKERELVAAISSSGGSTYYADSVKGRFTISRDNAKNTVYLQMNSLKPEDTAVYYCNKLLTRSYRTYGRYGYWGQGTQVTVSS” the “polyreactivity (PSR sort gate)” value was “high polyreactivity”.
With “QVQLVESGGGLVQAGGSLRLSCAASGGIFKKYAMGWYRQAPGKERELVAVITSGGRTNYADSVKGRFTISRDNAKNTVYLLMNSLKPEDTAVYYCAAVYVTGSYRYGYWGQGSQVTVSS” the “polyreactivity (PSR sort gate)” value was “high polyreactivity”.
With “QVQLVESGGGLVQAGGSLRLSCAASGGIFLGNAMAWYRQATGKETELVASITRGGDTSYADSVKARFTFSRDNAKNTVYLQMNSLKPEDTAVYYCNADYYSVVEYDYWGQGTQVTVSS” the “polyreactivity (PSR sort gate)” value was “low polyreactivity”.
For “QVQLVESGGGLVQAGGSLRLSCAASGGIFLPNAMGWYRQAPGKERELVAAISTGGSTNYADSVKGRFTISRDNAKNTVYLQMNSLKPEDTAVYYCAATPYNYVGFSRGGDYWGQGTQVTVSS”, the “polyreactivity (PSR sort gate)” value was “low polyreactivity”.
With “QVQLVESGGGLVQAGGSLRLSCAASGGIFLYNSMGWYRQAPGKERELVADISSSGITYYADSVKGRFTISRDNAKNTVYLQMNSLNPEDTAVYYCAADSTTRPGLRVYDDYDYWGQGTQVTVSS” the “polyreactivity (PSR sort gate)” value was “low polyreactivity”.
In the case of “QVQLVESGGGLVQAGGSLRLSCAASGGIFPDYAMGSYRQAPGKERELVAVISDSGGSTYYADSVKGRFTISRDNAKNTVYLQMNSLKPEDTAVYYCAAETEWYYGYYEYWGQGTQVTVSS”, the “polyreactivity (PSR sort gate)” value is reported as “high polyreactivity”.
With “QVQLVESGGGLVQAGGSLRLSCAASGGIFPDYAMGWYRQAPGKERELVAVISDSGGSTYYADSVKGRFTISRDNAKNTVYLQMNSLKPEDTAVYYCSAETEWYYGYYEYWGQGTQVTVSS” the “polyreactivity (PSR sort gate)” value was “high polyreactivity”.
With “QVQLVESGGGLVQAGGSLRLSCAASGGIFRNYAMGWYRQAPGKERELVARISSAGSTNYADSVKGRFTNSRDNAKNTVYLLMNSLKPEDTAVYYCAKGWRSWAEEGHDYWGQGTQVTVSS” the “polyreactivity (PSR sort gate)” value was “low polyreactivity”.
With “QVQLVESGGGLVQAGGSLRLSCAASGGIFRPYAMGWYRQAPGKERELVAAITYNGGSTYYADSVKGRFTISRDNAKNTVYLQMNSLKPEDTAVYYCAAVSYSGPYAYEYWGQGTQVTVSS” the “polyreactivity (PSR sort gate)” value was “high polyreactivity”.
In the case of “QVQLVESGGGLVQAGGSLRLSCAASGGIFRVYAMGWYRQAPGNERELVAAINGRGTSTYYADSVKGRFTISRDNAKNTVYLQMNSLKPEDTAVYYCAASGQYHYDYWGQGTQVTVSS”, the “polyreactivity (PSR sort gate)” value is reported as “high polyreactivity”.
In the case of “QVQLVESGGGLVQAGGSLRLSCAASGGIFRYYAMGWYRQAPAKERELVAAISSGGRTYYADSVKGRFTISRDNAKTTVYLQMNSLKPEDTAVYYCNADRYWGYDYWGQGTQVTVSS”, the “polyreactivity (PSR sort gate)” value is reported as “high polyreactivity”.
With “QVQLVESGGGLVQAGGSLRLSCAASGGIFSKNVMGWYRQAPGKERELVAAISRGGTTSYADSVKGRFTISRDNAKNTVYLQMNSLKPEDTAVYFCAAKYWWYPYFTVDYDYWGQGTQVTVSS” the “polyreactivity (PSR sort gate)” value was “high polyreactivity”.
With “QVQLVESGGGLVQAGGSLRLSCAASGGIFSVYAMGWYRQAPGKEREFVAAISKSGGRTYYADSVKGRFTISRDNAKNTVYLQMNSLKPEDTAVYYWNVVRRSPGDYSYYYWGQGTQVTVSS” the “polyreactivity (PSR sort gate)” value was “low polyreactivity”.
In the case of “QVQLVESGGGLVQAGGSLRLSCAASGGIFSYAMGWYRQAPGKERELVAAISSGGSTYYADSVKGRFTISRDNAKNTVYLQMNSLKPEDTAVYYCAADGNGVDYDYWGQGTQVTVSS”, the “polyreactivity (PSR sort gate)” value is reported as “low polyreactivity”.
With “QVQLVESGGGLVQAGGSLRLSCAASGGIFTFNDMGWYRQAPGKERELVAAISRRGGSTYYADSVKGRFTISRDNAKNTVFLQMNSLKPEDTAVYYCAASSRRQRSEPYYYWGQGTQVTVSS” the “polyreactivity (PSR sort gate)” value was “high polyreactivity”.
With “QVQLVESGGGLVQAGGSLRLSCAASGGIFTKNAMGWYRQAPGKERELVAGISRTGGNTYYADSVKGRFTISRDNAKYTVYLQMNSLIPEDTAVYYCNALYGGPHRLRYDYWGQGTQVTVSS” the “polyreactivity (PSR sort gate)” value was “low polyreactivity”.
With “QVQLVESGGGLVQAGGSLRLSCAASGGIFVANAMGWYRQAPGKERELVAAISRSGGSTYYADSVKGRFTISRDNAKNTVYLQMKSLKPEDTAVYYCAAKSRRQFTVGLTSDYRGQGTQVTVSS” the “polyreactivity (PSR sort gate)” value was “high polyreactivity”.
With “QVQLVESGGGLVQAGGSLRLSCAASGGIFVGNAMGWYRQAPGKERELVAAITYRGGRTYYADSVKGRFTISRDNAKNTVYLQMNSLKPEDTAVYYCNAYKQGGRSKYNYWGQGTQVTVSS” the “polyreactivity (PSR sort gate)” value was “high polyreactivity”.
With “QVQLVESGGGLVQAGGSLRLSCAASGGIFVGYAMGWYRQAPGKERELVAAISSGGNTYYADSVKGRFTISRDNAKNTVYLQMNSLKPEDTAVYYCAAVRQYQGYRYDYWGQGTQVTVSS” the “polyreactivity (PSR sort gate)” value was “high polyreactivity”.
With “QVQLVESGGGLVQAGGSLRLSCAASGGIFVGYAMGWYRQAPGKERELVASIDGSDGSTFYADSVKGRFTISRDNAKNTVYLQMNSLKPVDTAVYYCNARATLLSPANTIRGYDYWGQGTQVTVSS” the “polyreactivity (PSR sort gate)” value was “low polyreactivity”.
For “QVQLVESGGGLVQAGGSLRLSCAASGGIFVLYAMGWYRQAPGKERELVAAIRYGGSSTYYADSVKGRFTISRDYAKNTVYLQMNSLKPEDTAVYYCAAEPYSWDTWVDYDYWGQGTQVTVSS”, the “polyreactivity (PSR sort gate)” value was “low polyreactivity”.
In the case of “QVQLVESGGGLVQAGGSLRLSCAASGGIFVQNAMGWYRQAPGKERELVAAITNGGSTYYADSVKGRFTISRDNAKNTVYLQMNSLKPEDTAVYYCAVDEYFIQDMDYWGQGTQVTVSS”, the “polyreactivity (PSR sort gate)” value is reported as “low polyreactivity”.
In the case of “QVQLVESGGGLVQAGGSLRLSCAASGGIFVRYAMGWYRQAPGKERELVAAISYSGGSTYYADSVKGRFTISRDNAKNTVYLQLNSLKPEDTAVYYCAAYVTGRYDWGQVTQVTVSS”, the “polyreactivity (PSR sort gate)” value is reported as “high polyreactivity”.
In the case of “QVQLVESGGGLVQAGGSLRLSCAASGGIFVTYAMGWYRKAPGKERELLAAISANGGDTYYADSVKGRFTISRDNAKTSVYLQMNRLKPEDTAVYYCAADGFLPILHPVPWSYYYPFGYWGQGTHVTVSS”, the “polyreactivity (PSR sort gate)” value is reported as “low polyreactivity”.
In the case of “QVQLVESGGGLVQAGGSLRLSCAASGGIFVTYAMGWYRQAPGKERELVAAITSGGTTYYADSVKGRFTISRDNAKNTVYLQMNSLKPEDTAVYYCAADPTNSYLEYDYWGQGTQVTVSS”, the “polyreactivity (PSR sort gate)” value is reported as “low polyreactivity”.
In the case of “QVQLVESGGGLVQAGGSLRLSCAASGGIFWAYAMGWYRQAPGKERELVAAITTRGTSTYYADSVKGRFTISCDNAKNTVYLQMNSLKPEDTAVYYCAAALYGYYSTLTTYWGQGTQVTVSS”, the “polyreactivity (PSR sort gate)” value is reported as “high polyreactivity”.
With “QVQLVESGGGLVQAGGSLRLSCAASGGIFWVYAMGWYRQAPGKERELVAAISNSDTSTSYADSVKGRFTISRDNAKNTVYLQMNSLKPEDTAVYYCNADSPSLSGDYWGQGTQVTVSS” the “polyreactivity (PSR sort gate)” value was “low polyreactivity”.
